Test results reported in paper doi:10.1101/2021.08.19.456998, “Structures of the Human SPAK and OSR1 Conserved C-Terminal (CCT) Domains” (bioRxiv, 2021).
One block for each binder: values may come before it. Where no end group is shown, it is not given here. The star is where a group is joined. Biotin = O=C1N[C@H]2[C@H](CS[C@H]2CCCCC(=O)*)N1

Key:
Details in all cases: both partners purified
[1] = biological target: T1, Biotin-C6-SEEGKPQLVGRFQVTSSK (N-terminally biotinylated 18-mer RFQV peptide derived from WNK4) (human); assay: grating-coupled interferometry (Creoptix WAVE); waveRAPID; biotin-C6-18-mer peptide captured on streptavidin chip (about 400 pg/mm^2), cleaved SPAK or OSR1 as analyte at 2 µM; 25°C, HBS EP; heterogeneous ligand model for SPAK
T1 construct: With No Lysine kinase 4 (WNK4), 18-mer with the RFQV motif; also called biotinylated 18-mer peptide; biotin 18-mer peptide; source: synthetic peptide, bought: GL Biochem, Shanghai Ltd
T1 peptide: {Biotin-C6}-SEEGKPQLVGRFQVTSSK

[2] = biological target: T1, Biotin-C6-SEEGKPQLVGRFQVTSSK …; assay: grating-coupled interferometry (Creoptix WAVE); traditional multicycle kinetics; biotin-C6-18-mer peptide captured on streptavidin chip, cleaved OSR1 as analyte, 25 µM in 1:3 dilutions (six points); 25°C, HBS EP
[3] = biological target: T2, biotin-OSR (uncleaved human OSR1 CCT domain, residues 423-527, biotinylated on the AviTag) (human, biotin on the lysine of the AviTag (…)); assay: grating-coupled interferometry (Creoptix WAVE); waveRAPID; biotin-SPAK or biotin-OSR immobilised on streptavidin chip (about 1000 pg/mm^2), 18-mer peptide as analyte at 5 µM; 25°C, HBS EP (10 mM HEPES pH 7.4, 150 mM NaCl, 3 mM EDTA, 0.005% Tween20); 1:1 kinetic model, global fit
T2 construct: Oxidative Stress Responsive 1 (OSR1) kinase, human, conserved C-terminal (CCT) domain, residues 423-527; the TEV site was not cut in this form; also called hOSR1-CCT; hOSR-CCT; source: E. coli BL21-CodonPlus (DE3)-RIL, purified (HisTrap, SEC), biotinylated with BirA; not shown: His6, N-terminal, kept; AviTag, N-terminal, kept
T2 sequence (chain, as listed by the source): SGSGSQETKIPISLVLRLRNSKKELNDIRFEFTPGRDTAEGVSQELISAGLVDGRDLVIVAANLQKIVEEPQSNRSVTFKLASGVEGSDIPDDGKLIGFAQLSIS

[4] = biological target: T3, biotin-SPAK (uncleaved human SPAK CCT domain, residues 441-545, biotinylated on the AviTag) (human, biotin on the lysine of the AviTag (…)); assay: as above
T3 construct: STE20/SPS1-related proline/alanine-rich kinase (SPAK), human, conserved C-terminal (CCT) domain, residues 441-545; the TEV site was not cut in this form; also called hSPAK-CCT; source: E. coli BL21-CodonPlus (DE3)-RIL, purified (HisTrap, SEC), biotinylated with BirA; not shown: His6, N-terminal, kept; AviTag, N-terminal, kept

[5] = biological target: T3, biotin-SPAK (uncleaved human SPAK CCT …); assay: grating-coupled interferometry (Creoptix WAVE); traditional multicycle kinetics; biotin-SPAK or biotin-OSR immobilised on streptavidin chip, 18-mer peptide as analyte, 50 µM in 3-fold dilutions (six points); 25°C, HBS EP; one-to-one fit

Kd [1]: 2.1 µM
Kd [2]: 6.6 µM
B1: cleaved OSR1 (human OSR1 CCT domain, residues 423-527, tags removed with TEV protease) (domain or fragment)
chain: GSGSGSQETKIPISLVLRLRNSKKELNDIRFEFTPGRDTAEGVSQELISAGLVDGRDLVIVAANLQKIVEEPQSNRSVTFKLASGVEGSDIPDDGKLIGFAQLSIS
notes: glycine of the TEV site (ENLYFQ/G) left after cleavage; OSR1, human, CCT domain, residues 423-527; also called cleaved hOSR1-CCT; hOSR1-CCT; source: E. coli BL21-CodonPlus (DE3)-RIL, purified (HisTrap, SEC, TEV cleavage, SEC in HBS EP); not shown: His6, N-terminal, cleaved; AviTag, N-terminal, cleaved

Kd [3]: 2.5 µM
Kd [4]: 1.1 µM
Kd [5]: 1.16 µM
B2: 18-mer RFQV peptide derived from WNK4 (SEEGKPQLVGRFQVTSSK), unbiotinylated (peptide)
peptide: SEEGKPQLVGRFQVTSSK
notes: With No Lysine kinase 4 (WNK4), 18-mer with the RFQV motif; also called 18-mer peptide; RFQV 18-mer peptide; source: synthetic peptide, bought: GL Biochem, Shanghai Ltd
